Reference: the RNAGym collection of RNA variant scans (doi:10.7554/elife.80360)

B1: HDV Ribozyme (parent)
chain: GGCCGGCAUGGUCCCAGCCUCCUCGCUGGCGCCGGCUGGGCAACAUUCCGAGGGGACCGUCCCCUCGGUAAUGGCGAAUGGGACCCA

Variants of: B1
Test: self-cleavage, relative activity (ratio to wild type); higher = more cleavage; co-transcriptional

Variant | self-cleavage
GGCCGGCAUGGUCCCAGCCUCCUCGCUGGCGCCGGCUGGGAAAUAUUCCGAGGGGACCGUCCCCUCGGUAAUGGCGAAUGGGACCCA | 0.692
GGCCGGCAUGGUCCCAGCCUCCUCGCUGGCGCCGGCUGGGAAAAAUUCCGAGGGGACCGUCCCCUCGGUAAUGGCGAAUGGGACCCA | 0.404
GGCCGGCAUGGUCCCAGCCUCCUCGCUGGCGCCGGCUGGUCAACAUUCCGAGGGGACCGUCCCCUCGGUAAAGGCGAAUGGGACCCA | 0.181
GGCCGGCAUGGUCCCAGCCUCCUCGCUGGCGCCGGCUGGUCAACAUUCCGAGGGGACCGUCCCCUCGGUAACGGCGAAUGGGACCCA | 0.176
GGCCGGCAUGGUCCCAGCCUCCUCGCUGGCGCCGGCUGGGAAACAUUCCGAGGGGACCGUCCCCUCGGUAGUGGCGAAUGGGACCCA | 0.91
GGCCGGCAUGGUCCCAGCCUCCUCGCUGGCGCCGGCUGGGAAACAUUCCGAGGGGACCGUCCCCUCGGUAUUGGCGAAUGGGACCCA | 0.665
GGCCGGCAUGGUCCCAGCCUCCUCGCUGGCGCCGGCUGGGAAACAUUCCGAGGGGACCGUCCCCUCGGUAAUGGCGAAUGGGACCCG | 0.883
GGCCGGCAUGGUCCCAGCCUCCUCGCUGGCGCCGGCUGGGAAACAUUCCGAGGGGACCGUCCCCUCGGUAAUGGCGAAUGGGACCCC | 1
GGCCGGCAUGGUCCCAGCCUCCUCGCUGGCGCCGGCUGGGAAACAUUCCGAGGGGACCGUCCCCUCGGUAAUGGCGAAUGGGACCCU | 0.866
GGCCGGCAUGGUCCCAGCCUCCUCGCUGGCGCCGGCUGGGAAACAUUCCGAGGGGACCGUCCCCUCGGUAAUGGCGAGUGGGACCCA | 0.534
GGCCGGCAUGGUCCCAGCCUCCUCGCUGGCGCCGGCUGGGAAACAUUCCGAGGGGACCGUCCCCUCGGUAAUGGCGACUGGGACCCA | 0.185
GGCCGGCAUGGUCCCAGCCUCCUCGCUGGCGCCGGCUGGGAAACAUUACGAGGGGACCGUCCCCUCGGUAAUGGCGAAUGGGACCCA | 0.982
GGCCGGCAUGGUCCCAGCCUCCUCGCUGGCGCCGGCUGGGAACCAUUCCGAGGGGACCGUCCCCUCGGUAAUGGCGAAUGGGACCCA | 0.872
GGCCGGCAUGGUCCCAGCCUCCUCGCUGGCGCCGGCUGGGAAUCAUUCCGAGGGGACCGUCCCCUCGGUAAUGGCGAAUGGGACCCA | 0.57
GGCCGGCAUGGUCCCAGCCUCCUCGCUGGCGCCGGCUGGUCAACAUUCCGAGGGGACCGGCCCCUCGGUAAUGGCGAAUGGGACCCA | 0.796
GGCCGGCAUGGUCCCAGCCUCCUCGCUGGCGCCGGCUGGUCAACAUUCCGAGGGGACCGACCCCUCGGUAAUGGCGAAUGGGACCCA | 0.795

Variant | self-cleavage
GGCCGGCAUGGUCCCAGCCUCCUCGCUGGCGCCGGCUGGUCAACAUUCCGAGGGGACCGCCCCCUCGGUAAUGGCGAAUGGGACCCA | 0.723
GGCCGGCAUGGUCCCAGCCUCCUCGCUGGCGCCGGCUGGGAAACAUUCCGGGGGGACCGUCCCCUCGGUAAUGGCGAAUGGGACCCA | 0.705
GGCCGGCAUGGUCCCAGCCUCCUCGCUGGCGCCGGCUGGGAAACAUUCCGCGGGGACCGUCCCCUCGGUAAUGGCGAAUGGGACCCA | 0.875
GGCCGGCAUGGUCCCAGCCUCCUCGCUGGCGCCGGCUGGGAAACAUUCCGAGGGGUCCGUCCCCUCGGUAAUGGCGAAUGGGACCCA | 0.89
GGCCGGCAUGGUCCCAGCCUCCUCGCUGGCGCCGGCUGGGAGACAUUCCGAGGGGACCGUCCCCUCGGUAAUGGCGAAUGGGACCCA | 0.269
GGCCGGCAUGGUCCCAGCCUCCUCGCUGGCGCCGGCUGGGAAACAUUCCGAGGGGACCGUCCCCUCGGUAAUGGCGAAUGGGUCCCA | 0.35
GGCCGGCAUGGUCCCAGCCUCCUCGCUGGCGCCGGCUGGUCAACAUUCCGAGGGGACCGUCCCCUCGGCAAUGGCGAAUGGGACCCA | 0.91
GGCCGGCAUGGUCCCAGCCUCCUCGCUGGCGCCGGCUGGUCAACAUUCCGAGGGGACCGUCCCCUCGGAAAUGGCGAAUGGGACCCA | 0.623
GGCCGGCAUGGUCCCAGCCUCCUCGCUGGCGCCGGCUGGUCAACAUUCCGAGGGGACCGUCCCCUCGGUAAUGGCGAAAGGGACCCA | 0.262
GGCCGGCAUGGUCCCAGCCUCCUCGCUGGCGCCGGCUGGGAAACAUUCCGAGGGGACCGUCCCCUCGGUAAUGGCGAAUGGGACCCA | 0.94
GGCCGGCAUGGUCCCAGCCUCCUCGCUGGCGCCGGCUGGGAAACGUUCCGAGGGGACCGUCCCCUCGGUAAUGGCGAAUGGGACCCA | 0.942
GGCCGGCAUGGUCCCAGCCUCCUCGCUGGCGCCGGCUGGGAAACCUUCCGAGGGGACCGUCCCCUCGGUAAUGGCGAAUGGGACCCA | 0.504
GGCCGGCAUGGUCCCAGCCUCCUCGCUGGCGCCGGCUGGGAAACUUUCCGAGGGGACCGUCCCCUCGGUAAUGGCGAAUGGGACCCA | 0.872
GGCCGGCAUGGUCCCAGCCUCCUCGCUGGCGCCGGCUGGGAAACAUUCCGAGGGGACCGUCCCCUCGGUUAUGGCGAAUGGGACCCA | 0.817
GGCCGGCAUGGUCCCAGCCUCCUCGCUGGCGCCGGCUGGUCAACAUUCCGAGGGGACCGUCCCCGCGGUAAUGGCGAAUGGGACCCA | 0.546
GGCCGGCAUGGUCCCAGCCUCCUCGCUGGCGCCGGCUGGUCAACAUUCCGAGGGGACCGUCCCCCCGGUAAUGGCGAAUGGGACCCA | 0.7
